Source: US20240060126

Assays:
[1] = biological target: MspA-((Del-F80/S81/G112/V13)D56N/E59R/G75S/G77S/L88N/D90N/D91N/D118R/Q126R/D134R/E139K)8
[2] = biological target: MspA-((Del-G75N76/A117/D118)D56N/E59R/G77S/L88N/D90N/D91N/Q126R/D134R/E139K)8
[3] = biological target: MspA-((Del-L74/G75/D118/L119)D56F/E59R/L88N/D90N/D91N/Q126R/D134R/E139K)8
[4] = biological target: MspA-((Del-L74/G75/D118/L119)D56N/E57D/E59R/L88N/D90N/D91N/Q126R/D134R/E139K)8
[5] = biological target: MspA-((Del-L74/G75/D118/L119)D56N/E59Q/L88N/D90N/D91N/Q126R/D134R/E139K)8
[6] = biological target: MspA-((Del-L74/G75/D118/L119)D56N/E59R/L88N/D90N/D91N/Q126R/D134N/E139K)8
[7] = biological target: MspA-((Del-L74/G75/D118/L119)D56N/E59R/L88N/D90N/D91N/Q126R/D134R/E139K)8
[8] = biological target: MspA-((Del-L74/G75/D118/L119)D56Y/E59R/L88N/D90N/D91N/Q126R/D134R/E139K)8
[9] = biological target: MspA-((Del-L74/G75/D118/L119)E59R/L88N/D90N/D91N/Q126R/D134R/E139K)8
[10] = biological target: MspA-((Del-L74/G75/D118/L119)E59Y/L88N/D90N/D91N/Q126R/D134R/E139K)8
[11] = biological target: MspA-((Del-N79/F80N113N114)D56N/E59R/G75S/G77S/L88N/D90N/D91N/D118R/Q126R/D134R/E139K)8
[12] = biological target: MspA-(D56N/E59R/G75S/G77S/L88N/D90N/D91N/D118R/Q126R/D134R/E139K)8
[13] = biological target: MspA-(G75S/G77S/L88N/D90N/D91N/D118R/Q126R/D134R/E139K)8

B1: T4 Dda-E94C/C109A/C136A/A360C (SEQ ID NO: 24 with mutations E94C/C109A/C136A/A360C) (protein)
chain: MTFDDLTEGQKNAFNIVMKAIKEKKHHVTINGPAGTGKTTLTKFIIEALISTGETGIILAAPTHAAKKILSKLSGKEASTIHSILKINPVTYECNVLFEQKEVPDLAKARVLICDEVSMYDRKLFKILLSTIPPWATIIGIGDNKQIRPVDPGENTAYISPFFTHKDFYQCELTEVKRSNAPIIDVATDVRNGKWIYDKVVDGHGVRGFTGDTALRDFMVNYFSIVKSLDDLFENRVMAFTNKSVDKLNSIIRKKIFETDKDFIVGEIIVMQEPLFKTYKIDGKPVSEIIFNNGQLVRIIEAEYTSTFVKARGVPGEYLIRHWDLTVETYGDDEYYREKIKIISSDEELYKFNLFLGKTCETYKNWNKGGKAPWSDFWDAKSQFSKVKALPASTFHKAQGMSVDRAFIYTPCIHYADVELAQQLLYVGVTRGRYDVFYV
[1]
  Average Signal to Noise (S2N): 13
  Mean Current Range: 17.1 pA
  Mean Noise of the Signal: 1.32
  Median Current Range: 17.1 pA
  Median Noise of the Signal: 1.22
  Standard Deviation of the Current Range: 2.11 pA
  Standard Deviation of the Noise of the Signal: 0.32
[2]
  Average Signal to Noise (S2N): 12.5
  Mean Current Range: 15.8 pA
  Mean Noise of the Signal: 1.27
  Median Current Range: 15.8 pA
  Median Noise of the Signal: 1.21
  Standard Deviation of the Current Range: 1.69 pA
  Standard Deviation of the Noise of the Signal: 0.24
[3]
  Average Signal to Noise (S2N): 11.7
  Mean Current Range: 15.6 pA
  Mean Noise of the Signal: 1.33
  Median Current Range: 15.6 pA
  Median Noise of the Signal: 1.28
  Median S2N: 12.3
  Percentage of complement slipping forwards: 0.38%
  Standard Deviation of S2N: 0.59
  Standard Deviation of the Current Range: 1.92 pA
  Standard Deviation of the Noise of the Signal: 0.24
  slips forward per kilobase: less than 5 slips forward per kilobase
[4]
  Average Signal to Noise (S2N): 12.9
  Mean Current Range: 15.4 pA
  Mean Noise of the Signal: 1.19
  Median Current Range: 15.4 pA
  Median Noise of the Signal: 1.16
  Median S2N: 11.9
  Percentage of complement slipping forwards: 0.7%
  Standard Deviation of S2N: 0.33
  Standard Deviation of the Current Range: 1.77 pA
  Standard Deviation of the Noise of the Signal: 0.19
[5]
  Average Signal to Noise (S2N): 12.8
  Mean Current Range: 15.6 pA
  Mean Noise of the Signal: 1.22
  Median Current Range: 15.5 pA
  Median Noise of the Signal: 1.16
  Median S2N: 13.3
  Percentage of complement slipping forwards: 0.55%
  Standard Deviation of S2N: 0.86
  Standard Deviation of the Current Range: 1.72 pA
  Standard Deviation of the Noise of the Signal: 0.25
[6]
  Average Signal to Noise (S2N): 12.2
  Mean Current Range: 16 pA
  Mean Noise of the Signal: 1.31
  Median Current Range: 16.1 pA
  Median Noise of the Signal: 1.27
  Median S2N: 12
  Percentage of complement slipping forwards: 0.65%
  Standard Deviation of S2N: 0.57
  Standard Deviation of the Current Range: 1.93 pA
  Standard Deviation of the Noise of the Signal: 0.21
[7]
  Average Signal to Noise (S2N): 12.5
  Mean Current Range: 15.3 pA
  Mean Noise of the Signal: 1.22
  Median Current Range: 15.3 pA
  Median Noise of the Signal: 1.17
  Percentage of complement slipping forwards: 0.49%
  Standard Deviation of the Current Range: 1.66 pA
  Standard Deviation of the Noise of the Signal: 0.2
  slips forward per kilobase: less than 5 slips forward per kilobase
[8]
  Average Signal to Noise (S2N): 12.9
  Mean Current Range: 15.9 pA
  Mean Noise of the Signal: 1.24
  Median Current Range: 15.9 pA
  Median Noise of the Signal: 1.19
  Median S2N: 13.3
  Percentage of complement slipping forwards: 0.6%
  Standard Deviation of S2N: 1.12
  Standard Deviation of the Current Range: 1.83 pA
  Standard Deviation of the Noise of the Signal: 0.22
[9]
  Average Signal to Noise (S2N): 12.8
  Mean Current Range: 16.1 pA
  Mean Noise of the Signal: 1.26
  Median Current Range: 16.2 pA
  Median Noise of the Signal: 1.22
  Standard Deviation of the Current Range: 1.84 pA
  Standard Deviation of the Noise of the Signal: 0.24
[10]
  Average Signal to Noise (S2N): 11
  Mean Current Range: 15 pA
  Mean Noise of the Signal: 1.36
  Median Current Range: 14.9 pA
  Median Noise of the Signal: 1.32
  Median S2N: 11.9
  Percentage of complement slipping forwards: 0.27%
  Standard Deviation of S2N: 1.17
  Standard Deviation of the Current Range: 1.72
  Standard Deviation of the Noise of the Signal: 0.23
[11]
  Average Signal to Noise (S2N): 13.1
  Mean Current Range: 15.8 pA
  Mean Noise of the Signal: 1.21
  Median Current Range: 15.8 pA
  Median Noise of the Signal: 1.13
  Standard Deviation of the Current Range: 1.9 pA
  Standard Deviation of the Noise of the Signal: 0.28
[12]
  Average Signal to Noise (S2N): 11.9
  Mean Current Range: 15.6 pA
  Mean Noise of the Signal: 1.31
  Median Current Range: 15.6 pA
  Median Noise of the Signal: 1.24
  Standard Deviation of the Current Range: 1.76
  Standard Deviation of the Noise of the Signal: 0.26
[13]
  Average Signal to Noise (S2N): 11.4
  Mean Current Range: 15.5 pA
  Mean Noise of the Signal: 1.35
  Median Current Range: 15.8 pA
  Median Noise of the Signal: 1.35
  Standard Deviation of the Current Range: 2.23
  Standard Deviation of the Noise of the Signal: 0.14
